# Patent US20220119506A1 (NOVOBIND LIVESTOCK THERAPEUTICS, published 2022)
# Changes are numbered by the printed parent chain.
# T1: PirB (Vibrio parahaemolyticus)
# T1 construct: also called JHE-like toxin PirB-like
# T1 chain: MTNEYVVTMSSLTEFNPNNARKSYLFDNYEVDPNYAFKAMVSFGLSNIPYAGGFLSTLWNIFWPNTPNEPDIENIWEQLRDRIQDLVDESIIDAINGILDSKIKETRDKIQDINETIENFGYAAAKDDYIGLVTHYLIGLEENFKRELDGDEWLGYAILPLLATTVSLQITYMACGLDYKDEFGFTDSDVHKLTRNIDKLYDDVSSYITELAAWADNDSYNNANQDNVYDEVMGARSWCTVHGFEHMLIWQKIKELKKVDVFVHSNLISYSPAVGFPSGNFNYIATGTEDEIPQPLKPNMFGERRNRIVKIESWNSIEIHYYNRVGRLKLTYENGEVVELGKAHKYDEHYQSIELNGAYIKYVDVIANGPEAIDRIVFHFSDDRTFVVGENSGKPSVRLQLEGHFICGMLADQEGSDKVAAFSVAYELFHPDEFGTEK
# T2: PirA (Vibrio parahaemolyticus)
# T2 construct: also called JHE-like toxin PirA-like; vp19
# T2 chain: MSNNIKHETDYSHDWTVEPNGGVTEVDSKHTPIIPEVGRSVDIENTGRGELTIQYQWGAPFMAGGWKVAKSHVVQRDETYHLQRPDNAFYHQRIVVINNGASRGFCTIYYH
# B1: NBX0841 (VHH)
# VHH: QVQLQESGGGLVQAGGSLRLSCAASARTFIYKMGWFRQAPGKERDFVASIMWSVGNNYYYTDSAKGRFTISRDIAKNTMYLQMDSLEPEDTGEYYCAAATTSTQWRYWGQGTQVTVSS
# notes: on phage in the phage ELISA
# B2: NBX0648 (VHH)
# VHH: QVQLQESGGGLVQAGGSLRLSCEASGIIFSSNVMGWYRQAPGKQRELVASRTSGGLTNYADSAKGRFTISRDNAKNTVYLQMNSLKPEDTAVYYCNARRLFTNYWGQGTQVTVSS
# notes: on phage in the phage ELISA
# B3: NBX0828 (VHH)
# VHH: QVQLQESGGGAVQAGGSLRLSCAGPRSIFSGNAMAWYRQVPGKQRETVATVNTGGLTWYGDFVKGRFTISRDDAKNTLLLQMDSLKPEDTAVYYCNAVLVRARGMWGQGTQVTVSS
# notes: on phage in the phage ELISA
# B4: NBX0639 (VHH)
# VHH: QVQLQESGGGLVQAGGSLRLSCAASGIVFSSIVMAWYRQAPGKQRELVASITNGGLVNSGDSVKGRFTISRDNAKNTVYLQMNSLKPEDTAVYYCNARRIMTSYWGQGTQVTVSS
# notes: on phage in the phage ELISA
# B5: NBX0621 (VHH)
# VHH: QVQLQESGGGLVQAGGSLRLSCAASGRTFSTYSMGWFRQVPGKEREFVAAIRWSGGSRTYADSVKGRFTISRDNTKNVVYLQMTSLKPEDTAVYYCAADRDGYSSYAHQYDYWGQGTQVTVSS
# notes: on phage in the phage ELISA
# B6: NBX0628 (VHH)
# VHH: B5 VHH with E6Q, A14V, T31S, S33A, R52K, K65A, S105R
# notes: on phage in the phage ELISA
# B7: NBX0605 (VHH)
# VHH: QVQLQESGGGLVQPGGALRLSCAASGSFFSIYAMAWYRQAPGKQRELVAGITSGSETNYADSVKGRFTISRDNAKNTVYLQMNSLKLEDTAVYYCNRWAPLTRLDYWGQGTQVTVSS
# notes: on phage in the phage ELISA
# B8: NBX0640 (VHH)
# VHH: QVQLQESGGGLVQPGGSLRLSCAASGSIFSGNVMGWYRQVPGKQRDLVATITGGGITRYADSVKGRFTISRDNAKNTVYLQMNSLKPEDTAVYYCHYRRIMQQYWGQGTQVTVSS
# notes: on phage in the phage ELISA
# B9: NBX0645 (VHH)
# VHH: B8 VHH with P14A, R58H, H96L
# notes: on phage in the phage ELISA
# B10: NBX0647 (VHH)
# VHH: B8 VHH with L11S, Q13P, G35A, T50S, I51M, I56V, K64I, G65A, A74V
# notes: on phage in the phage ELISA
# B11: NBX0650 (VHH)
# VHH: B8 VHH with P14A, A23E, M34L, S84A
# notes: on phage in the phage ELISA
# B12: NBX0643 (VHH)
# VHH: B8 VHH with P14A, A23E, I51M, I56V, G65A, A91G
# notes: on phage in the phage ELISA
# B13: NBX0638 (VHH)
# VHH: B8 VHH with P14A, H96N, Q107K, Q110L
# notes: on phage in the phage ELISA
# B14: NBX0646 (VHH)
# VHH: B8 VHH with P14A, K43N, D46E, I56V, G65A, Y104S
# notes: on phage in the phage ELISA
# B15: NBX0644 (VHH)
# VHH: B8 VHH with P14A, T77K, S84G, Y94F, H96F
# notes: on phage in the phage ELISA
# B16: NBX0405 (VHH)
# VHH: QVQLQESGGGLVQAGDSLRLSCATSGRTFSRYTMGWFRQTPGKEREFVAAISWSGTYYTDSVKGRFTISRDNAKNTVYLQMNSLKPEDTAVYYCVVGSRRLYYSSDINYWGQGTQVTVSS
# notes: on phage in the phage ELISA
# B17: NBX0402 (VHH)
# VHH: QVQLQQSGGSLVQAGGSLRLSCAASGLPFINYAMGWFRQAPGKDREIVAAIDWNGDSTYYAVSVKGRFTISRDNAKNTVTLQMNSLKPEDTAIYYCASHYQPYIRVSATRRFEADYWGQGTQVTVSS
# notes: on phage in the phage ELISA
# B18: NBX0403 (VHH)
# VHH: B17 VHH with S98A, H99D
# notes: on phage in the phage ELISA
# B19: NBX0849 (VHH)
# VHH: QVQLQESGGGLVQAGGSLRLSCAASGRTFNRYAMGWFRQAPGKEREFVAAISWSGNTQYTDSVKGRFTISRDDAKNTVYLQMNSLKPEDTAVYYCALRIPASSSTTYYYADQYDYWGQGTQVTVSS
# notes: on phage in the phage ELISA
# B20: NBX0618 (VHH)
# VHH: QVQLQESGGGLVQPGGSLRLSCAASGSIFSFNAMGWYRQAPGKQRELVAAITKGGSTSYADSVKGRFTISVDNAKNTVYLQMNSLTPEDTAVYYCNVKTLRSALFPGYEYWGQGTQVTVSS
# notes: on phage in the phage ELISA
# B21: NBX0649 (VHH)
# VHH: QVQLQQSGGGLVQPGGSLTLSCAASGSIASGNVLGWYRQAPGKQRELVATITSGGLTHYKDSVKGRFTISRDNAKNMVFLQMNSLKPEDTAVYYCNYRRLATGYWGQGTQVTVSS
# notes: on phage in the phage ELISA
# B22: NBX0616 (VHH)
# VHH: QVQLQESGGGLVQAGGSLRLSCATSGLTFSSYAMGWFRQAPGKEREFVATISWSGKSTRYSDSVKGRFTISRDNAKNTVYLQMNSLKPEDTAVYYCAADYQRLGLLRVGVAEYDYWGQGIQVTVSS
# notes: on phage in the phage ELISA
# B23: NBX0635 (VHH)
# VHH: B22 VHH with S31N, P41A, S61A, Y80D, Q82R, D99E, V108D, E112D, D114S, I120T
# notes: on phage in the phage ELISA
# B24: NBX0607 (VHH)
# VHH: QVQLQESGGGLVQAGGSLRLSCAASGGTFSRLTMGWFRQAPGEEREFVAAVSWVAETTDYADSVKGRFSISRDNSKNTVYLQMNSLKPVDTAVYYCAAGPRDMIRSRNIRSYDSWGQGTQVTVSS
# notes: on phage in the phage ELISA
# B25: NBX0632 (VHH)
# VHH: B24 VHH with E6Q, E56G, S69T, Y80H
# notes: on phage in the phage ELISA
# B26: NBX0619 (VHH)
# VHH: B24 VHH with E6Q, S21F, S85N
# notes: on phage in the phage ELISA
# B27: NBX0629 (VHH)
# VHH: B24 VHH with E6Q, M34I, E46V
# notes: on phage in the phage ELISA
# B28: NBX0401 (VHH)
# VHH: QVQLQQSGGGLVRAGGSLRLSCETSGRTFSSYTMGWFRQAPGKEREFVGTIDWWSSSSSYADSVKGRFTISRDNAKNTVYLQMNSLKPEDTAVYYCAASGKYGLAYSRRDYAYWGQGTQVTVSS
# notes: on phage in the phage ELISA
# B29: NBX0641 (VHH)
# VHH: QVQLQESGGGLVQAGGSLRLSCAASGSISNSYVMGWYRQAPGKQRELVATITSGGLTNYAQSLKGRFTISRDNAKNTVYLQMTSLEPEDTAVYYCNARVIFTTYWGQGTQVTVST
# notes: on phage in the phage ELISA
# B30: NBX0834 (VHH)
# VHH: QVQLQESGGGSVQAGGSLRLSCAASESMFRDHNMGWYRQAPGKQRELVATISRGGLINYGDSVRGRFTISRDNAKNTIYLQMNSLKVEDTAVYYCNARRLLTTVWGQGTQVTVSP
# notes: on phage in the phage ELISA
# B31: NBX0840 (VHH)
# VHH: QVQLQQSGGGLVQAGGSLRLSCAASGSIRSSNVMGWYRQTPGKQRELVATMTAGGLTNYADSVKGRFTISRDNAKNTVYLQMNSLKPEDTAVYYCHYRRIFNVYWGQGTQVTVSS
# notes: on phage in the phage ELISA
# B32: NBX0642 (VHH)
# VHH: QVQLQQSGGGLVQAGGSLRLSCVASTVTFSRYAMGWFRQAPGKEREVVAGISGSGHRTYYGDFVKGRFTISRDNAKKTVYLQMNNLKPEDTAVYYCAGDLVAKFDSAYRVSYDSWGQGTQVTVSS
# notes: on phage in the phage ELISA
# B33: NBX0844 (VHH)
# VHH: QVQLQESGGGLAQTGDSLRLSCAASGRMFSGFVMGWYRQNPGKQRELVATITNGGLTHYGDSVKGRFTISRDNAKNTVYLQMNSLKSEDSAVYYCNARRLFTNYWGQGTQVTVSP
# notes: on phage in the phage ELISA
# B34: NBX0836 (VHH)
# VHH: QVQLQQSGGGLVQPGGSLRLSCSASGIRLGSYVMGYYRQAPGKQRELVATVTSGGTTNRADSVKGRFTISRDNAKNAVYLQMNSLKPEDTAVYYCNARILFTNYWGQGTQVTVSS
# notes: on phage in the phage ELISA
# B35: NBX0633 (VHH)
# VHH: QVQLQESGGGLVQPGGSLRLSCTASGTIFRSKSMAWYRQAPGQGRETVAHISGLGHTNYVESVKGRFTVSRDDAKNAVYLQMSSLKPEDTAVYYCNTFTAAFSWGQGTQVTVSS
# notes: on phage in the phage ELISA
# How the values were obtained:
# [1] = target: T1, PirB; assay: phage ELISA, antigen-coated wells
# [2] = target: T2, PirA; assay: phage ELISA, antigen-coated wells
Binder,binding above PBS-coated wells [1] [%],binding above PBS-coated wells [2] [%]
B1,≥ 50,
B2,≥ 50,
B3,≥ 50,
B4,≥ 50,
B5,,≥ 50
B6,,≥ 50
B7,,≥ 50
B8,≥ 50,
B9,≥ 50,
B10,≥ 50,
B11,≥ 50,
B12,≥ 50,
B13,≥ 50,
B14,≥ 50,
B15,≥ 50,
B16,≥ 50,
B17,,≥ 50
B18,,≥ 50

Binder,binding above PBS-coated wells [1] [%],binding above PBS-coated wells [2] [%]
B19,,≥ 50
B20,,≥ 50
B21,≥ 50,
B22,,≥ 50
B23,,≥ 50
B24,,≥ 50
B25,,≥ 50
B26,,≥ 50
B27,,≥ 50
B28,,≥ 50
B29,≥ 50,
B30,≥ 50,
B31,≥ 50,
B32,≥ 50,
B33,≥ 50,
B34,≥ 50,
B35,,≥ 50
